The record followed here is patent US20110229478A1, “ERBB3 BASED METHODS AND COMPOSITIONS FOR TREATING NEOPLASMS” (ZENSUN (SHANGHAI) SCIENCE & TECHNOLOGY LIMITED, priority 2002, published 2011).

Experiment [1] deals with transplanted tumour from spontaneous tumour of neu protein over-expressed FVB/N transgenic mice. Briefly: Therapeutic effect of various dosage of DE3-1 in transplanted tumour model (Table 3). The class given is in vivo. An excerpt:
(§1) Transplanted tumour model, after immunohistological screening test, about 1000 mm^3 tumour mass was cut down from spontaneous tumour of neu protein over-expressed FVB/N transgenic mice. The tumour mass was abraded into single cells with nylon net, the amount injected under the breast of each FVB/N transgenic mice was 5×10^6 cells.
(§2) Preparing animal and transplanted animal tumor model: The same as (Experiment on therapeutic effect of B3 and DE3-1 rhErbB3-f12 and rhErbB3-f78 vaccine on immune therapy against tumor). No treatment was given to the control group, histag protein was injected to the negative control group, and Adriamycin (Santou MingZhi Pharmaceuticals) was administered for the positive control group, 5 μg, 20 μg and 80 μg was given to DE3-1 group respectively.
One day after the inoculation, Adriamycin 2.2 mg/kg was injected abdominally for consecutive 7 days in mice of the positive control group; histag protein+Al(OH)^3 was injected abdominally for mice of the negative control group; In DE3-1 group, the vaccine was absorbed on 0.1 mg of Al(OH)^3 and multi-points subcutaneous injection every 2 weeks for a total of 3 injections were carried out in mice. The experiment completed in 14 days after the third injection. Tumor development was monitored weekly, tumor size was measured with vernier and the size was expressed as (length diameter×short diameter 2/2), curve of tumor growth was protracted and analyzed statistically.
(§3) Tumor weight was measured after completion of the experiment and tumor-inhibitory rate was calculated, tumor inhibitory rate=[(tumor weight of control group−tumor weight of experiment groups)/tumor weight of control group]×100.

The test system is the same in experiment [2]. Briefly: Anti-tumor effect of rhErbB3-f78 (Table 5). The class given is in vivo.
Source text: as §1
(§4) Experiment on the therapeutic effect of various dosage of DE3-1 rhErbB3412 and rhErbB3-f78 on immune therapy against tumor.
as §2, §3

Experiment [3] has the same test system. In words: Anti-tumor effect of rhErbB3-f12 (Table 4). In kind it is in vivo.
Source text: as §1, §4, §2, §3

Experiment [4] has the same test system. Briefly: Therapeutic effect of B3 vaccine in transplanted tumour model (Table 2). In kind it is in vivo. As to the method: as §1
Nothing was administrated in the control group; 24 hours after the inoculation, SD32 and B3 vaccine injection started in SD32 and B3 experiment groups, the aforementioned vaccines were absorbed on 0.1 mg/ml of Al(OH)3 respectively, and injected multi-pointedly every 2 weeks for a total of three injections; the experiment was completed in 14 days after the third injection. Morbidity was monitored weekly, tumor size was measured weekly with vernier. Volume (length diameter×short diameter 2/2) of the tumor was used to represent their size, and curve of tumor growth was protracted,
Tumor weight was measured after completion of the experiment and tumor-inhibitory rate was calculated, inhibitory rate=[(tumor weight of control group−tumor weight of experiment groups)/tumor weight of control group]×100.

The subject of experiment [5] is tumor development in FVB/N transgenic mice (neu protein over-expression, spontaneous breast cancer). Briefly: Preventive effect of B3, DE3-1 on tumor development. The class given is in vivo. Conditions: for Incidence of tumor growth / Time of tumor occurrence: injected abdominally every 20 days, 7 injections, 40 mice; for Tumor-inhibitory effect against the development of tumor, incidence versus negative control group: ×2 testing versus BSA + CFA control. The protocol:
8-10 weeks old FVB/N transgenic mice (bought from Jackson Lab USA) was selected as experiment animals, the mice were divided into 5 groups with 40 mice each, they were control group, B2, B3 and DE3-1 group; BSA, B2, SD32, B3, DE3-1 was mixed with Freud's adjuvant (CFA, complete Freud's adjuvant, bought from Sigma company) and injected abdominally every 20 days for 7 injections respectively to various groups. The dosage of BSA, B2, SD32, B3 and DE3-1 vaccine was 10, 5, 10, 1 and 10 μg/mouse/injection. Weekly monitor tumour development. The tumour development was verified and analysed statistically.
Objective of the present experiment is to explore whether there is preventive effect of B3 or DE3-1 vaccine on tumor development. The reason to choose this type of transgenic mice as experiment animal model, is because rat wild type neu cDNA controlled by mice breast virus promotor was transferred into the body of mice and produce over-expression of neu protein and spontaneous breast cancer occurred within 5-8 months in half of the mice. Natural course of tumor in the transgenic mice and its pathologic pattern is similar to that of human breast cancer. Therefore, it may have better therapeutic effect when used clinically. The sample contains 40 animals in each group, the aim of selecting such large sample is to ensure the number of cases which have the disorders will be greater than 10 animals, thus will be of greater implication statistically. The selection of dosage is based on the results of pre-experiments.

The next experiment deals with B2 and B3 antigen. In words: Cross immunity of B2 and B3 antigen (ELISA antibody titer). The settings on record: serum of immunized FVB transgenic mice, ELISA on wrapped B2 or B3 protein, 450 nm. The protocol:
FVB transgenic mice were immuned with B2 protein and B3 protein respectively, 10 days thereafter, blood was withdrawn and antibody titer was tested with ELISA. 0.3 μg/hole of B2 and B3 was wrapped, 1:1000 B2 and B3 on each plate were titrated with standard serum respectively, cultured at 37° C. for 30 minutes, sealed with 1% BSA, added double antibody, color development for 15 minutes with DAD, tested with Bio-Rad 450 nm enzyme labeled device.
In general terms: ELISA stands for enzyme-linked immunosorbent assay.

Where [6] appears, read: ADR 2.2 mg/kg injected abdominally for consecutive 7 days.
Where [7] appears, read: 5 μg + Al(OH)3, subcutaneous every 2 weeks, 3 injections.
The mark [8] stands for this setting: 20 μg + Al(OH)3, subcutaneous every 2 weeks, 3 injections.
Where [9] appears, read: 80 μg + Al(OH)3, subcutaneous every 2 weeks, 3 injections.

Several values for one entry are separate records, joined by “and”; a condition that tells them apart may be missing. Equal values may be shown once.

In experiment [1] (setting [6]), `COc1cccc2c1C(=O)c1c(O)c3c(c(O)c1C2=O)C[C@@](O)(C(=O)CO)C[C@@H]3O[C@H]1C[C@H](N)[C@H](O)[C@H](C)O1` [ADR, Adriamycin, reference compound] showed an Inhibitory rate of 25.3%, a Tumor size of 4603.1 ± 478.3 mm3 and a Tumor weight of 3.564 ± 0.42 g. In experiment [2] (2 mg/kg, ip X 7 qd), this molecule had an Inhibitory rate of 40.98% and a Tumor weight of 0.648 ± 0.27 g.
In experiment [3] (10 mg/kg, ip X 7 qd), `CC(=O)O[C@H]1C(=O)[C@@]2(C)[C@H]([C@H](OC(=O)c3ccccc3)[C@]3(O)C[C@H](OC(=O)[C@H](O)[C@@H](NC(=O)c4ccccc4)c4ccccc4)C(C)=C1C3(C)C)[C@]1(OC(C)=O)CO[C@@H]1C[C@@H]2O` [Taxol, reference compound] gave an Inhibitory rate of 44.32% and a Tumor weight of 3.09 ± 1.08 g.
With “B3: protein of ErbB3 extra-cell membrane region (SEQ ID NO:2), flag-tagged, expressed by eucaryotic cells; anti-tumor vaccine”, the “Tumor-inhibitory effect (significance)” value in experiment [4] (t testing, P<0.01) is listed as “significant tumor-inhibitory effect”. The Inhibitory rate in experiment [4] (vaccine + Al(OH)3, every 2 weeks, three injections) is 33%. Moreover, the Tumor size in experiment [4] (vaccine + Al(OH)3, every 2 weeks, three injections, 5 weeks) was determined as 5271.8 ± 658.9 mm3. Also, the Tumor weight in experiment [4] (vaccine + Al(OH)3, every 2 weeks, three injections, at completion of experiment) stood at 3.13 ± 0.33 g. Also, in experiment [5] (5 μg/animal/dose + CFA), the “Incidence of tumor growth” value amounted to 12.5%; the “Time of tumor occurrence” value was 22 weeks and 20 weeks. The “Tumor-inhibitory effect against the development of tumor, incidence versus negative control group” value in experiment [5] is “significant tumor-inhibitory effect”. For the same molecule, the “Cross immunity between B2 and B3 antigen” value in the experiment with B2 and B3 antigen is “there isn't any cross immunity”.

B1: rhErbB3-f12: protein segment of ErbB3 extra-cell membrane region (SEQ ID NO:14) expressed by E. coli (protein, listed as Homo sapiens)
chain: MKYLLPTAAAGLLLLAAQPAMAMDIKHNRPRRDCVAEGKVCDPLCSSGGCWGPGPGQCLSCRNYSRGGVCVTHCNFLNGEPLEHHHHHH
Regarding B1, the Inhibitory rate was determined as 58.39% in experiment [3] (0.25 mg/kg, sc X 3 q14d); 52.61% in experiment [3] (0.5 mg/kg, sc X 3 q14d); 56.76% in experiment [3] (1 mg/kg, sc X 3 q14d). The Tumor weight is given as 2.31 ± 0.40 g in experiment [3] (0.25 mg/kg, sc X 3 q14d); 2.62 ± 0.67 g in experiment [3] (0.5 mg/kg, sc X 3 q14d); 2.40 ± 0.49 g in experiment [3] (1 mg/kg, sc X 3 q14d).

B2: rhErbB3-f78: ErbB3 extra-cell membrane protein segment (SEQ ID NO:16) expressed by E. coli (protein, listed as Homo sapiens)
chain: MVCVASCPHNFVVDQTSCVRACPPDKMEVDKNGLKMCEPCGGLCPKACEGTGSGSRFQTVDSSNIDGFVNCTKILGNLDFLITGLNGDPWHKIPALDPEKLNVFRTVREITGYLNIQSWPPHMHNFSVFSNLTTIGGRSKLAAALEHHHHHH
Consider B2, for which, in experiment [2] (2.5 mg/kg, sc X 3 q14d), the Inhibitory rate is given as 60.38% and the Tumor weight came out at 0.435 ± 0.12 g.

B3: DE3-1: extra-cell membrane ErbB3 protein segment (SEQ ID NO:3) expressed by E. coli, N end fused with Trx Tag, His Tag and S-Tag (protein, listed as Homo sapiens)
chain: MRANDALQVLGLLFSLARGSEVGNSQAVCPGTLNGLSVTGDAENQYQTLYKLYERCEVVMGNLEIVLTGHNADLSFLQWIREVTGYVLVAMNEFSTLPLPNLRVVRGTQVYDGKFAIFVMLNYNTNSSHALRQLRLTQLTEILSGGVYIEKNDKLCHMDTIDWRDIVRDRDAEIVVKDNGRSCPPCHEVC
modifications: N-terminal Trx, His, S tags
For B3, in experiment [1] (setting [7]), the Inhibitory rate was 22.4%, the Tumor size amounted to 5563.7 ± 600.6 mm3 and the Tumor weight worked out at 3.687 ± 0.45 g. In experiment [1] (setting [8]), the Tumor size was 4715.0 ± 434.8 mm3 and the Tumor weight stood at 3.455 ± 0.41 g. For the same molecule, in experiment [1] (setting [9]), the Inhibitory rate worked out at 26.3%, the Tumor size was 4810.8 ± 460.5 mm3 and the Tumor weight was determined as 3.658 ± 0.37 g. In addition, in experiment [5] (10 μg/animal/dose + CFA), the “Incidence of tumor growth” value stood at 35% and the “Time of tumor occurrence” value was 23 weeks. The “Tumor-inhibitory effect against the development of tumor, incidence versus negative control group” value in experiment [5] was “not significantly different”.
